Test results as given in patent publication US20230057461A1 (US Dept. of Health and Human Services, published 2023).

Biological target: T1, Rab escort protein REP-1 (UniProt P24386 1-653)
T1 construct: Endogenous protein detected by Western blot (Abcam cat# 134964)
T1 sequence (looked up): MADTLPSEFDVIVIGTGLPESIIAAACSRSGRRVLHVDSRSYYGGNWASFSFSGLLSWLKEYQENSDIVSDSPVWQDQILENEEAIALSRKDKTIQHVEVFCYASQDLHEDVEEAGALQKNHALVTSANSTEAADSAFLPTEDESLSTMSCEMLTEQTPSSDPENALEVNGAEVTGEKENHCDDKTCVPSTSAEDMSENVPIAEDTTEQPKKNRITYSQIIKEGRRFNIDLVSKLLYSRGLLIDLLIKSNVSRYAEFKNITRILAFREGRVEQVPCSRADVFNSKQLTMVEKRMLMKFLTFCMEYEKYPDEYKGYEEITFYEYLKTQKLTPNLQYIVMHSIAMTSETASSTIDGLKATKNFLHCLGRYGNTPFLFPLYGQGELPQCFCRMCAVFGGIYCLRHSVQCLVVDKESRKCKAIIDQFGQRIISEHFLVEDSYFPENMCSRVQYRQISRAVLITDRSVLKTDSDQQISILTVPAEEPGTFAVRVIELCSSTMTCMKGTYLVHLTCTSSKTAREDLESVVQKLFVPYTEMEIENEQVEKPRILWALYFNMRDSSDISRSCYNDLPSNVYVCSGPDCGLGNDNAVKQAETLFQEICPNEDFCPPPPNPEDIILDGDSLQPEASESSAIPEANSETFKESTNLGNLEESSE
Assay: co-immunoprecipitation of GFP-Rab13 with GFP-Trap beads from MDA-MB-231 lysates, Western blot
Method: For immunoprecipitations, cells were lysed with a buffer containing 50mM Tris pH 7.4, 1% NP-40, 150mM NaCl, 10mM MgC12, 10% glycerol and a cocktail of protease and phosphatase inhibitors (Thermo Fischer Scientific, cat# 1861281). Lysates were cleared by centrifugation and mixed with GFP-Trap Magnetic Agarose beads (Chromotek, cat# gtma-10) for 1.5 h, at 4° C. Immobilized complexes were eluted with Laemmli's buffer and analyzed by SDS-PAGE and immunoblotting.

- binding result: binds
B1: GFP-Rab13 (N-terminally GFP-tagged human Rab13) (other, UniProt P51153 1-203, looked up, not shown: large carriers)
chain: MAKAYDHLFKLLLIGDSGVGKTCLIIRFAEDNFNNTYISTIGIDFKIRTVDIEGKKIKLQVWDTAGQERFKTITTAYYRGAMGIILVYDITDEKSFENIQNWMKSIKENASAGVERLLLGNKCDMEAKRKVQKEQADKLAREHGIRFFETSAKSSMNVDEAFSSLARDILLKSGGRRSGNGNKPPSTDLKTCDKKNTNKCSLG
notes: Stably expressed in MDA-MB-231 cells from constructs with the wild type or the delta-PMO Rab13 3'UTR; the encoded protein is the same; Assayed from cell lysates; also called exogenous GFP-Rab13; exogenous Rab13
